# Values of other authors in paper PMC5578180.
# System: His193
# Assay: kinetics
# Details: folded, green (pre-photoconversion) state of LEA under illumination
substance,measurement,value
"Least Evolved Ancestor (LEA), ancestral reconstructed green-to-red photoconvertible GFP-like fluorescent protein (synthetic construct (ancestral gene reconstruction of Faviina coral GFP-like proteins; lineage of the great star coral, printed as Monastrea cavernosa); A60V;Q62H;T69A;D74H;T104R;S105N;Y116N;M154T;V157I;R194C;R216H;del217;L219G)",pKa,7.5
